Measured values published in patent US11833164B2, “Methods of treating Fabry disease in patients having a mutation in the GLA gene” (Amicus Therapeutics, Inc., priority 2019, dated 2023).

B1: A160S (protein)
chain: MQLRNPELHLGCALALRFLALVSWDIPGARALDNGLARTPTMGWLHWERFMCNLDCQEEPDSCISEKLFMEMAELMVSEGWKDAGYEYLCIDDCWMAPQRDSEGRLQADPQRFPHGIRQLANYVHSKGLKLGIYADVGNKTCAGFPGSFGYYDIDAQTFSDWGVDLLKFDGCYCDSLENLADGYKHMSLALNRTGRSIVYSCEWPLYMWPFQKPNYTEIRQYCNHWRNFADIDDSWKSIKSILDWTSFNQERIVDVAGPGGWNDPDMLVIGNFGLSWNQQVTQMALWAIMAAPLFMSNDLRHISPQAKALLQDKDVIAINQDPLGKQGYQLRQGDNFEVWERPLSGLAWAVAMINRQEIGGPRSYTIAVASLGKGVACNPACFITQLLPVKRKLGFYEWTSRLRSHINPTGTVLLQLENTMQMSLKDLL
B2: D161V (protein)
chain: MQLRNPELHLGCALALRFLALVSWDIPGARALDNGLARTPTMGWLHWERFMCNLDCQEEPDSCISEKLFMEMAELMVSEGWKDAGYEYLCIDDCWMAPQRDSEGRLQADPQRFPHGIRQLANYVHSKGLKLGIYADVGNKTCAGFPGSFGYYDIDAQTFAVWGVDLLKFDGCYCDSLENLADGYKHMSLALNRTGRSIVYSCEWPLYMWPFQKPNYTEIRQYCNHWRNFADIDDSWKSIKSILDWTSFNQERIVDVAGPGGWNDPDMLVIGNFGLSWNQQVTQMALWAIMAAPLFMSNDLRHISPQAKALLQDKDVIAINQDPLGKQGYQLRQGDNFEVWERPLSGLAWAVAMINRQEIGGPRSYTIAVASLGKGVACNPACFITQLLPVKRKLGFYEWTSRLRSHINPTGTVLLQLENTMQMSLKDLL
B3: D161N (protein)
chain: MQLRNPELHLGCALALRFLALVSWDIPGARALDNGLARTPTMGWLHWERFMCNLDCQEEPDSCISEKLFMEMAELMVSEGWKDAGYEYLCIDDCWMAPQRDSEGRLQADPQRFPHGIRQLANYVHSKGLKLGIYADVGNKTCAGFPGSFGYYDIDAQTFANWGVDLLKFDGCYCDSLENLADGYKHMSLALNRTGRSIVYSCEWPLYMWPFQKPNYTEIRQYCNHWRNFADIDDSWKSIKSILDWTSFNQERIVDVAGPGGWNDPDMLVIGNFGLSWNQQVTQMALWAIMAAPLFMSNDLRHISPQAKALLQDKDVIAINQDPLGKQGYQLRQGDNFEVWERPLSGLAWAVAMINRQEIGGPRSYTIAVASLGKGVACNPACFITQLLPVKRKLGFYEWTSRLRSHINPTGTVLLQLENTMQMSLKDLL
B4: D161Y (protein)
chain: MQLRNPELHLGCALALRFLALVSWDIPGARALDNGLARTPTMGWLHWERFMCNLDCQEEPDSCISEKLFMEMAELMVSEGWKDAGYEYLCIDDCWMAPQRDSEGRLQADPQRFPHGIRQLANYVHSKGLKLGIYADVGNKTCAGFPGSFGYYDIDAQTFAYWGVDLLKFDGCYCDSLENLADGYKHMSLALNRTGRSIVYSCEWPLYMWPFQKPNYTEIRQYCNHWRNFADIDDSWKSIKSILDWTSFNQERIVDVAGPGGWNDPDMLVIGNFGLSWNQQVTQMALWAIMAAPLFMSNDLRHISPQAKALLQDKDVIAINQDPLGKQGYQLRQGDNFEVWERPLSGLAWAVAMINRQEIGGPRSYTIAVASLGKGVACNPACFITQLLPVKRKLGFYEWTSRLRSHINPTGTVLLQLENTMQMSLKDLL
B5: D161H (protein)
chain: MQLRNPELHLGCALALRFLALVSWDIPGARALDNGLARTPTMGWLHWERFMCNLDCQEEPDSCISEKLFMEMAELMVSEGWKDAGYEYLCIDDCWMAPQRDSEGRLQADPQRFPHGIRQLANYVHSKGLKLGIYADVGNKTCAGFPGSFGYYDIDAQTFAHWGVDLLKFDGCYCDSLENLADGYKHMSLALNRTGRSIVYSCEWPLYMWPFQKPNYTEIRQYCNHWRNFADIDDSWKSIKSILDWTSFNQERIVDVAGPGGWNDPDMLVIGNFGLSWNQQVTQMALWAIMAAPLFMSNDLRHISPQAKALLQDKDVIAINQDPLGKQGYQLRQGDNFEVWERPLSGLAWAVAMINRQEIGGPRSYTIAVASLGKGVACNPACFITQLLPVKRKLGFYEWTSRLRSHINPTGTVLLQLENTMQMSLKDLL
B6: W162S (protein)
chain: MQLRNPELHLGCALALRFLALVSWDIPGARALDNGLARTPTMGWLHWERFMCNLDCQEEPDSCISEKLFMEMAELMVSEGWKDAGYEYLCIDDCWMAPQRDSEGRLQADPQRFPHGIRQLANYVHSKGLKLGIYADVGNKTCAGFPGSFGYYDIDAQTFADSGVDLLKFDGCYCDSLENLADGYKHMSLALNRTGRSIVYSCEWPLYMWPFQKPNYTEIRQYCNHWRNFADIDDSWKSIKSILDWTSFNQERIVDVAGPGGWNDPDMLVIGNFGLSWNQQVTQMALWAIMAAPLFMSNDLRHISPQAKALLQDKDVIAINQDPLGKQGYQLRQGDNFEVWERPLSGLAWAVAMINRQEIGGPRSYTIAVASLGKGVACNPACFITQLLPVKRKLGFYEWTSRLRSHINPTGTVLLQLENTMQMSLKDLL
B7: A160T (protein)
chain: MQLRNPELHLGCALALRFLALVSWDIPGARALDNGLARTPTMGWLHWERFMCNLDCQEEPDSCISEKLFMEMAELMVSEGWKDAGYEYLCIDDCWMAPQRDSEGRLQADPQRFPHGIRQLANYVHSKGLKLGIYADVGNKTCAGFPGSFGYYDIDAQTFTDWGVDLLKFDGCYCDSLENLADGYKHMSLALNRTGRSIVYSCEWPLYMWPFQKPNYTEIRQYCNHWRNFADIDDSWKSIKSILDWTSFNQERIVDVAGPGGWNDPDMLVIGNFGLSWNQQVTQMALWAIMAAPLFMSNDLRHISPQAKALLQDKDVIAINQDPLGKQGYQLRQGDNFEVWERPLSGLAWAVAMINRQEIGGPRSYTIAVASLGKGVACNPACFITQLLPVKRKLGFYEWTSRLRSHINPTGTVLLQLENTMQMSLKDLL
B8: A160V (protein)
chain: MQLRNPELHLGCALALRFLALVSWDIPGARALDNGLARTPTMGWLHWERFMCNLDCQEEPDSCISEKLFMEMAELMVSEGWKDAGYEYLCIDDCWMAPQRDSEGRLQADPQRFPHGIRQLANYVHSKGLKLGIYADVGNKTCAGFPGSFGYYDIDAQTFVDWGVDLLKFDGCYCDSLENLADGYKHMSLALNRTGRSIVYSCEWPLYMWPFQKPNYTEIRQYCNHWRNFADIDDSWKSIKSILDWTSFNQERIVDVAGPGGWNDPDMLVIGNFGLSWNQQVTQMALWAIMAAPLFMSNDLRHISPQAKALLQDKDVIAINQDPLGKQGYQLRQGDNFEVWERPLSGLAWAVAMINRQEIGGPRSYTIAVASLGKGVACNPACFITQLLPVKRKLGFYEWTSRLRSHINPTGTVLLQLENTMQMSLKDLL
B9: V164A (protein)
chain: MQLRNPELHLGCALALRFLALVSWDIPGARALDNGLARTPTMGWLHWERFMCNLDCQEEPDSCISEKLFMEMAELMVSEGWKDAGYEYLCIDDCWMAPQRDSEGRLQADPQRFPHGIRQLANYVHSKGLKLGIYADVGNKTCAGFPGSFGYYDIDAQTFADWGADLLKFDGCYCDSLENLADGYKHMSLALNRTGRSIVYSCEWPLYMWPFQKPNYTEIRQYCNHWRNFADIDDSWKSIKSILDWTSFNQERIVDVAGPGGWNDPDMLVIGNFGLSWNQQVTQMALWAIMAAPLFMSNDLRHISPQAKALLQDKDVIAINQDPLGKQGYQLRQGDNFEVWERPLSGLAWAVAMINRQEIGGPRSYTIAVASLGKGVACNPACFITQLLPVKRKLGFYEWTSRLRSHINPTGTVLLQLENTMQMSLKDLL

Test system: mutant form of α-Gal A expressed in HEK-293 cells
Assay: HEK assay (GLP HEK / Migalastat Amenability Assay): α-Gal A activity in lysates of transiently transfected HEK-293 cells incubated with or without 10 μM migalastat
Type: cell-based, human
Settings: for Absolute increase (% WT): 10 μM migalastat versus baseline; for Relative increase: 10 μM migalastat α-Gal A activity relative to baseline; for 10 μM migalastat α-Gal A activity (% WT): 5 days; for 10 μM migalastat α-Gal A activity (% WT) / Baseline α-Gal A activity (% WT): percentage of baseline wild-type α-Gal A activity; for 10 μM migalastat α-Gal A activity (% WT) / Baseline α-Gal A activity (% WT) / Baseline α-Gal A activity / 10 μM migalastat α-Gal A activity: mean ± SEM; for Baseline α-Gal A activity (% WT): absence of migalastat; for Baseline α-Gal A activity / 10 μM migalastat α-Gal A activity: lysates of HEK-293 cells transfected with the mutant form; for Baseline α-Gal A activity: incubated 5 days in the absence of migalastat; for 10 μM migalastat α-Gal A activity: incubated 5 days with 10 μM migalastat
In short: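 HEK-293 cells transiently transfected with mutant α-Gal A and incubated with or without 10 μM migalastat; lysate activity given as nmol free 4-MU released per mg protein per hour. Values are mean±SEM.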

Molecule | Absolute increase (% WT) | Relative increase | 10 μM migalastat α-Gal A activity (% WT) | Baseline α-Gal A activity (% WT) | Baseline α-Gal A activity [nmol/mg/h] | 10 μM migalastat α-Gal A activity [nmol/mg/h]
B1 | 29.9 | 1.5 | 85.9 ± 6.3 | 56 ± 3.1 | 18308 ± 685 | 27775 ± 1478
B2 | 16.0 | 1.4 | 59.7 ± 2.7 | 43.7 ± 1.7 | 13728 ± 1344 | 19117 ± 2241
B3 | 14.1 | 1.2 | 68.7 ± 4.9 | 54.5 ± 4.3 | 19553 ± 2838 | 24298 ± 3201
B4 | 32.1 | 1.9 | 63.1 ± 4.6 | 31 ± 2.5 | 11060 ± 1571 | 21231 ± 2136
B5 | 15.5 | 1.2 | 77 ± 3.8 | 61.5 ± 2.9 | 21949 ± 2587 | 26457 ± 2512
B6 | 9.2 | 4.6 | 11.8 ± 0.8 | 2.6 ± 0.2 | 653 ± 38 | 3019 ± 210
B7 | 31.3 | 1.4 | 90.9 ± 8.1 | 59.6 ± 3.5 | 20193 ± 1713 | 29082 ± 1980
B8 | 21.9 | 1.4 | 66 ± 4.8 | 44.1 ± 2.7 | 15511 ± 1847 | 22124 ± 1885
B9 | 7.5 | 1.3 | 32 ± 2.2 | 24.5 ± 1.8 | 6491 ± 691 | 8468 ± 832
